Reference: the supplement of paper PMC9233669
Fewer inactive variants are shown than the library holds.

Columns and labels:
biotinyl-Met-oxazolone = assay: self-aminoacylation, catalytic enhancement (BMO) (fold over background); higher = more active; k-Seq, kA / k0A0; sequences stand for … in GGGAAUGGAUCCACAUCUACGAAUUC…UUCACUGCAGACUUGACGAAGCUG
Method in brief: (§1)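 The uncatalyzed rate is the low-activity peak of a bimodal Gaussian fit, and catalytic enhancement is median kA divided by it. The kA values came from pseudo-first-order fits, with 1000 bootstraps, of per-sequence fraction reacted measured by streptavidin capture, triplicate qPCR and Illumina sequencing. Mutagenized RNA pools with a 21-nt variable region (0.43 μM) were reacted with each biotinyl-aminoacyl-oxazolone at 2–1250 μM in 50 μL HEPES/NaCl/KCl/MgCl2/CaCl2 buffer with 5% acetonitrile, pH 6.9–7.0, for 90 minutes at room temperature.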

biotinyl-Phe-oxazolone = assay: self-aminoacylation, catalytic enhancement (BFO) (fold over background); higher = more active; k-Seq, kA / k0A0; sequences stand for … in GGGAAUGGAUCCACAUCUACGAAUUC…UUCACUGCAGACUUGACGAAGCUG
Method in brief: as §1

biotinyl-Val-oxazolone = assay: self-aminoacylation, catalytic enhancement (BVO) (fold over background); higher = more active; k-Seq, kA / k0A0; sequences stand for … in GGGAAUGGAUCCACAUCUACGAAUUC…UUCACUGCAGACUUGACGAAGCUG
Method in brief: as §1

biotinyl-Ile-oxazolone = assay: self-aminoacylation, catalytic enhancement (BIO) (fold over background); higher = more active; k-Seq, kA / k0A0; sequences stand for … in GGGAAUGGAUCCACAUCUACGAAUUC…UUCACUGCAGACUUGACGAAGCUG
Method in brief: as §1

biotinyl-Trp-oxazolone = assay: self-aminoacylation, catalytic enhancement (BWO) (fold over background); higher = more active; k-Seq, kA / k0A0; sequences stand for … in GGGAAUGGAUCCACAUCUACGAAUUC…UUCACUGCAGACUUGACGAAGCUG
Method in brief: as §1

biotinyl-Leu-oxazolone = assay: self-aminoacylation, catalytic enhancement (BLO) (fold over background); higher = more active; k-Seq, kA / k0A0; sequences stand for … in GGGAAUGGAUCCACAUCUACGAAUUC…UUCACUGCAGACUUGACGAAGCUG
Method in brief: as §1

| Sequence | self-aminoacylation (biotinyl-Met-oxazolone) | self-aminoacylation (biotinyl-Phe-oxazolone) | self-aminoacylation (biotinyl-Val-oxazolone) | self-aminoacylation (biotinyl-Ile-oxazolone) | self-aminoacylation (biotinyl-Trp-oxazolone) | self-aminoacylation (biotinyl-Leu-oxazolone) |
| --- | --- | --- | --- | --- | --- | --- |
| AGGUUUCCUAAUAGUCGCAAG [Fam3.1 aminoacylation ribozyme variant] | 1.6 | 2.49 | 1.44 | 1.65 | 1.54 | 1.61 |
| AGGUUUGCUAAGAGUCGCAAG [Fam3.1 aminoacylation ribozyme variant] | 1.15 | 3.17 | 1.02 | 1.12 | 1.54 | 1.02 |
| AGGUUUGCUAAUAGUCGCAAA [Fam3.1 aminoacylation ribozyme variant] | 2.11 | 3.21 | 2.2 | 2.52 | 1.92 | 2.42 |
| AGGUUUGCUAAUAGUCGCAAC [Fam3.1 aminoacylation ribozyme variant] | 1.15 | 1.52 | 1.05 | 1.26 | 1.43 | 1.13 |
| AGGUUUGCUACUAGUCGCAAG [Fam3.1 aminoacylation ribozyme variant] | 1.55 | 2.49 | 1.69 | 1.35 | 1.77 | 1.84 |
| AGGUUUGCUAGUAGUCGCAAG [Fam3.1 aminoacylation ribozyme variant] | 0.787 | 1.49 | 0.894 | 0.918 | 0.88 | 0.945 |
| AGUACCCUCGUCAUCGAGUGA [Fam2.1 aminoacylation ribozyme variant] | 3.19 | 18.8 | 2.08 | 2.37 | 3.06 | 3.97 |
| AGUACCCUGGUCAGCGAGUGA [Fam2.1 aminoacylation ribozyme variant] | 4.42 | 36.4 | 3.45 | 3.51 | 7.2 | 6.63 |
| AGUACCCUGGUCAUCGACUGA [Fam2.1 aminoacylation ribozyme variant] | 1.1 | 0.572 | 1.07 | 1.34 | 1.01 | 0.974 |
| AGUACCCUGGUCAUCGAGGGA [Fam2.1 aminoacylation ribozyme variant] | 1.22 | 1.82 | 1.47 | 1.43 | 2.91 | 2.21 |
| AGUACCCUGGUCAUCGCGUGA [Fam2.1 aminoacylation ribozyme variant] | 19.4 | 128 | 12.2 | 8.36 | 20.5 | 20.3 |
| AGUACCCUGGUCAUGGAGUGA [Fam2.1 aminoacylation ribozyme variant] | 2.7 | 11 | 2.27 | 2.31 | 2.82 | 3.1 |
| AGUACCCUGGUCAUUGAGUGA [Fam2.1 aminoacylation ribozyme variant] | 6.37 | 37.2 | 3.39 | 3.86 | 9.07 | 7.4 |
| AGUACCCUGGUGAUCGAGUGA [Fam2.1 aminoacylation ribozyme variant] | 5.62 | 30.2 | 2.92 | 2.76 | 5.32 | 5.58 |
| AGUACCCUGUUCAUCGAGUGA [Fam2.1 aminoacylation ribozyme variant] | 4.14 | 17.4 | 2.45 | 2.36 | 4.52 | 4.46 |
| AGUACGCUGGUCAUCGAGUGA [Fam2.1 aminoacylation ribozyme variant] | 2.82 | 14.4 | 3.21 | 3.17 | 5.19 | 4.19 |
| AGUACUCUGGUCAUCGAGUGA [Fam2.1 aminoacylation ribozyme variant] | 4.15 | 11.4 | 3.01 | 3.14 | 3.97 | 3.94 |
| AGUAUCCUGGUCAUCGAGUGA [Fam2.1 aminoacylation ribozyme variant] | 6.72 | 20.7 | 4 | 4.12 | 8.53 | 7.39 |
| AGUCACAUAGGUCAUCGGGUG [Fam2.2 aminoacylation ribozyme variant] | 8.54 | 63.6 | 6.38 | 7.04 | 9.51 | 10.2 |
| AGUCACCAAGGUCAUCGGGUG [Fam2.2 aminoacylation ribozyme variant] | 6.59 | 51.2 | 4.7 | 4.38 | 7.87 | 7.67 |
| AGUCACCUAGGUCAUAGGGUG [Fam2.2 aminoacylation ribozyme variant] | 3.12 | 9.22 | 2.17 | 2.18 | 2.56 | 2.56 |
| AGUCACCUAGGUCAUCGAGUG [Fam2.2 aminoacylation ribozyme variant] | 4.24 | 6.67 | 3.16 | 3.67 | 4.19 | 5.93 |
| AGUCACCUAGGUCAUCGGGUC [Fam2.2 aminoacylation ribozyme variant] | 2.13 | 4.41 | 1.7 | 1.46 | 1.69 | 1.82 |
| AGUCACCUAGGUCAUCGGGUG [Fam2.2 aminoacylation ribozyme variant] | 6.24 | 38.1 | 4.99 | 4.81 | 7.24 | 6.74 |
| AGUCACCUAGGUCAUGGGGUG [Fam2.2 aminoacylation ribozyme variant] | 5.58 | 29.2 | 4.11 | 3.57 | 5.76 | 5.97 |
| AGUCACCUAGGUCAUUGGGUG [Fam2.2 aminoacylation ribozyme variant] | 4.22 | 25.8 | 3.26 | 3.03 | 3.42 | 4.04 |
